Measured values taken from patent publication US20200277405A1, “COMPOSITION FOR ANTIBODY-DRUG CONJUGATE DIRECTED AGAINST TUMOR-CELL ASSOCIATED POLYSIALIC ACID” (Cornell University, priority 2019, published 2020).

B1: mo735: well-known mouse-derived IgG2a monoclonal antibody 735 targeting polysialic acid (antibody, V domains shown)
VH: QIQLQQSGPELVRPGASVKISCKASGYTFTDYYIHWVKQRPGEGLEWIGWIYPGSGNTKYNEKFKGKATLTVDTSSSTAYMQLSSLTSEDSAVYFCARGGKFAMDYWGQGTSVTVSS
VL: DVVMTQTPLSLPVSLGDQASISCRSSQSLVHSNGNTYLYWYLQKPGQSPKPLIYRVSNRFSGVPDRFSGSGSGTDFTLKISRVEAEDLGVYFCFQGTHVPYTFGGGTRLEIK
B2: ch735: chimeric human IgG1 polySia-specific mAb made by swapping variable regions of mouse mAb 735 (antibody, V domains shown)
VH: B1 VH
VL: B1 VL

Assays:
SW2 cells [1] = experiment: Supplementary internalization assays; format: cell-based, human; details: increases with concentration and time
Description: FIGS. 11A-11D depict internalization of mo735 by polySia-expressing cancer cells. […] Trypan blue was used to quench extracellular fluorescence. […] Cell membranes were labeled with wheat germ agglutinin (WGA,) and nuclei were stained with Hoescht. Scale bar, 10 μm. […] Cell membranes were labeled with wheat germ agglutinin (WGA) and nuclei were stained with Hoescht. Scale bar, 10 μm. […] Images include external mo735 detected with anti-mouse AF488, internal mo735 detected with anti-mouse AF647, nuclei stained with Hoescht, and a merged image. Scale bar, 10 μm.
For supplementary internalization assays, AF488-labeled isotype and mo735 antibodies were incubated with trypsinized SW2 cells at various concentrations for 2 h. Upon measurement in the flow cytometer, the extracellular fluorescence was quenched using trypan blue (final concentration 0.2%). For each sample, the mean fluorescence intensity (MFI) of 10,000 cells was measured in triplicate. […] Antibody internalization was also assessed according to the protocol described by Schmitz and coworkers (Diestel et al., “NCAM is Ubiquitylated, Endocytosed and Recycled in Neurons,” J. Cell. Sci. 120:4035-49 (2007), which is hereby incorporated by reference in its entirety), cells were incubated for 1 or 4 h at 37° C. with 150 nM mo735 in cell culture media. […]

SW2 cells [2] = experiment: Colocalization microscopy, SW2; format: cell-based, human; details: transferrin and LAMP-3 markers
Experimental: FIGS. 12A-12C depict colocalization of mo735 with markers that traffic to endolysosomal compartments. […] For LAMP-1 (right), confocal microscopic images were taken after labeling SH-SY5Y cells with ch735 or isotype antibody for 2 h. Following fixation and permeabilization, LAMP-1 antibody was applied and detected with anti-rabbit AF647 secondary. Anti-human IgG AF488 was used to detect ch735 or isotype antibody. […] Cross-sectional fluorescence profiles are shown at right with normalized pixel intensity for selected cells (marked with box in left confocal panels) versus distance across the cell for representative cross sections (marked with bar in right confocal panels).
SH—SY5Y or SW2 cells were plated at 20,000 cells/cm^2 on poly-L-lysine coated 35 mm glass bottom dishes and adhered overnight. To remove polySia, cells were treated as described above. To measure receptor-antibody internalization, cells were incubated with 150 nM AF488 labeled ch735, human IgG isotype control (ThermoFisher Scientific), mo735, or mouse IgG isotype control (anti-MBP mAb, NEB) and 100 nM AF647 transferrin or AF647 anti-LAMP-3 antibody (Santa Cruz) for 1 h. Cells were washed and then fixed as described above. […] The fluorescence intensity of the plot profile was analyzed using FIJI software. Fluorescence intensity was normalized to the maximum value for each channel.

polysialylated NCAM = experiment: Glycoprotein array specificity profiling; format: binding, chicken
Experimental: (§1) FIGS. 2A-2D depict binding specificity and affinity of the ch735 antibody. […] ELISA signals (Abs370) were obtained with anti-human IgG secondary antibodies. […] Antibodies were assayed at 1 μg/mL and detected with anti-human IgG secondary antibodies. […] Antibodies were assayed at 10 μg/mL and detected with anti-mouse IgG secondary antibodies.
as §1, with “3A-3D” for “2A-2D”, “mo735” for “the ch735”, “anti-mouse” for “anti-human”
Specificity of mo735 and ch735 was determined using printed glycan arrays 5.3 and 5.4 at the CFG. Both antibodies were analyzed at 10 μg/mL with 5 μg/mL of anti-mouse or anti-human Alexa-Fluor 647 (AF647)-conjugated secondary, respectively. Specificity of mo735 (1 μg/mL) and ch735 (10 μg/mL) was also assessed on a custom glycoprotein array that contained ˜40-50 glycoproteins including chicken brain NCAM and endoN-treated chicken brain NCAM.

Row | Molecule | antibody internalization (SW2 cells [1]) | compartments of accumulation after internalization (confocal) (SW2 cells [2]) | glycoprotein array binding (polysialylated NCAM; array of ~50 glycoproteins) | signal towards any other glycomolecules (polysialylated NCAM; microarrays, including endoN-treated NCAM spotted on the glycoprotein array)
1 | B1 | comparable internalization | compartmentalized in early and recycling endosomes |  | 
2 | B2 |  |  | strong preference for polysialylated NCAM | no significant signal
